Laboratory results as given in the supplement of paper PMC10567573.

B1: AUP1 (parent)
chain: FCASTRLPPTPLLLFPEEEATNGR

Variants of: B1
Experiment: protein stability index of a GFP-peptide fusion (GPS, HEK-293T) (PSI 1-6); higher = more stable
Conditions: c terminus: a fixed tail appended
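Note: lentivirally expressed fusions sorted by FACS into six bins by GFP to DsRed ratio, PSI derived from sequencing read proportions per bin multiplied by bin number.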

Going from FAASTRLPPTPLLLFPEEEATNGR [C2A] to FCASTRLPPTPLLLFPEEESTNGR [A20S], the protein stability index falls from 3.42 to 3.21.

Compared with FCASTRLPPTPLLLFPEEERTNGR [A20R], FCASTRLPPTPLLLFPEEEHTNGR [A20H] is higher in protein stability index: 2.77 for the first, 2.81 for the second.

Going from FCASTRLPPTPLLLFPEEECTNGR [A20C] to FCASTRLPPTPLLLFPEEEITNGR [A20I], the protein stability index falls from 2.38 to 2.3.

Going from FCASTRLPPTPLLLFPEEEPTNGR [A20P] to FCASTRLPPTPLLLFPEEEKTNGR [A20K], the protein stability index rises from 2.75 to 2.93.

First: FCASTRLPPTPLLLFPEEEYTNGR [A20Y]
Second: FCASTRLPPTPLLLFPEEEETNGR [A20E]
The protein stability index of the first is lower: 2.48 for the first, 3.51 for the second.

Going from DCASTRLPPTPLLLFPEEEATNGR [F1D] to SCASTRLPPTPLLLFPEEEATNGR [F1S], the protein stability index falls from 4.35 to 4.3.

First: YCASTRLPPTPLLLFPEEEATNGR [F1Y]
Second: FCAWTRLPPTPLLLFPEEEATNGR [S4W]
The protein stability index of the first is lower: 3 for the first, 3.38 for the second.

First: FCADTRLPPTPLLLFPEEEATNGR [S4D]
Second: FCARTRLPPTPLLLFPEEEATNGR [S4R]
The protein stability index of the first is higher: 3.6 for the first, 3.03 for the second.

First: FCAKTRLPPTPLLLFPEEEATNGR [S4K]
Second: FCASTRLPPTPLLLFPEEEATNGF [R24F]
The protein stability index of the first is higher: 3.01 for the first, 2.39 for the second.

First: FCASTRLPPTPLLLFPEEEATNGW [R24W]
Second: FCASTRLPPTPLLLFPEEEATNGE [R24E]
The protein stability index of the first is lower: 1.34 for the first, 3.4 for the second.

First: FCASTRLPPTPLLLFPEEGATNGR [E19G]
Second: FCASTRLPPTPLLLFPEEWATNGR [E19W]
The protein stability index of the first is higher: 2.29 for the first, 1.87 for the second.

Going from FCASTRLPPTPLLLFPEEKATNGR [E19K] to FCASTRLPPTPLLLFPEERATNGR [E19R], the protein stability index falls from 2.32 to 2.05.

Compared with FCASTRLPPTPLLLFPEENATNGR [E19N], FCASTRLRPTPLLLFPEEEATNGR [P8R] is higher in protein stability index: 2.62 for the first, 2.67 for the second.

Going from FCASTRLPPAPLLLFPEEEATNGR [T10A] to FCASTRLPPIPLLLFPEEEATNGR [T10I], the protein stability index falls from 3.13 to 2.52.

Compared with FCASTRLPPSPLLLFPEEEATNGR [T10S], FCASTRLPPHPLLLFPEEEATNGR [T10H] is lower in protein stability index: 2.8 for the first, 1.68 for the second.

First: FCASPRLPPTPLLLFPEEEATNGR [T5P]
Second: FCASRRLPPTPLLLFPEEEATNGR [T5R]
The protein stability index of the first is higher: 3.16 for the first, 1.99 for the second.

Compared with FCASARLPPTPLLLFPEEEATNGR [T5A], FCASNRLPPTPLLLFPEEEATNGR [T5N] is lower in protein stability index: 3.19 for the first, 3.05 for the second.

Compared with FCASMRLPPTPLLLFPEEEATNGR [T5M], FCASIRLPPTPLLLFPEEEATNGR [T5I] is lower in protein stability index: 2.96 for the first, 2.22 for the second.

Going from FCASTRLPPTPLLLFPLEEATNGR [E17L] to FCASTRLPPTPLLLFPREEATNGR [E17R], the protein stability index rises from 1.5 to 1.96.

Compared with FCASTRLPPTPLLLFPQEEATNGR [E17Q], FCASTRLPPTPLLLFPKEEATNGR [E17K] is lower in protein stability index: 2.28 for the first, 2.25 for the second.

Going from FCASTRLPPTPLLLFPAEEATNGR [E17A] to FCASTRLPPTPLLLFPYEEATNGR [E17Y], the protein stability index rises from 1.96 to 2.47.

First: FCASTRLPPTPLLLFPEEEATNQR [G23Q]
Second: FCASTRLPPTPLLLFPEEEATNHR [G23H]
The protein stability index of the first is higher: 3.09 for the first, 2.82 for the second.

Going from FCASTRLPPTPLLLFPEEEATNER [G23E] to FCASTRLPPTPLLLFPEEEATWGR [N22W], the protein stability index falls from 3.33 to 2.27.

Going from FCASTRLPPTPLLLFPEEEATIGR [N22I] to FCASTRLPPTPLLLFPEEEATFGR [N22F], the protein stability index rises from 2.11 to 2.18.

Going from FCASTRLPPTPLLLFPEEEATQGR [N22Q] to FCASTRLPPTPLLLFPEVEATNGR [E18V], the protein stability index falls from 3.18 to 2.21.

First: FCASTRLPPTPLLLFWEEEATNGR [P16W]
Second: FCASTRLPPTPLLLFFEEEATNGR [P16F]
The protein stability index of the first is higher: 2.48 for the first, 2.24 for the second.

Compared with FCASTRLPPTPLLLFTEEEATNGR [P16T], FCASTRLPPTPLLLFVEEEATNGR [P16V] is higher in protein stability index: 1.74 for the first, 1.8 for the second.

Going from FCASTRLPPTPLGLFPEEEATNGR [L13G] to FCASTRLPPTPLTLFPEEEATNGR [L13T], the protein stability index rises from 3.42 to 3.56.

Going from FCKSTRLPPTPLLLFPEEEATNGR [A3K] to FCLSTRLPPTPLLLFPEEEATNGR [A3L], the protein stability index rises from 2.5 to 3.27.

Going from FCYSTRLPPTPLLLFPEEEATNGR [A3Y] to FCMSTRLPPTPLLLFPEEEATNGR [A3M], the protein stability index rises from 1.7 to 2.88.

Compared with FCFSTRLPPTPLLLFPEEEATNGR [A3F], FCGSTRLPPTPLLLFPEEEATNGR [A3G] is lower in protein stability index: 2.45 for the first, 2.36 for the second.

Going from FCWSTRLPPTPLLLFPEEEATNGR [A3W] to FCASTRLPPTPWLLFPEEEATNGR [L12W], the protein stability index rises from 1.89 to 2.77.

Compared with FCASTRLPPTPNLLFPEEEATNGR [L12N], FCASTRLPPTPHLLFPEEEATNGR [L12H] is lower in protein stability index: 3.35 for the first, 2.87 for the second.

Compared with FCASTELPPTPLLLFPEEEATNGR [R6E], FCASTYLPPTPLLLFPEEEATNGR [R6Y] is lower in protein stability index: 4.11 for the first, 2.33 for the second.

First: FCASTMLPPTPLLLFPEEEATNGR [R6M]
Second: FCASTWLPPTPLLLFPEEEATNGR [R6W]
The protein stability index of the first is higher: 3.27 for the first, 2.12 for the second.

Going from FCASTRLPPTPLLLFPEEEASNGR [T21S] to FCASTRLPPTPLLLFPEEEACNGR [T21C], the protein stability index rises from 2.52 to 3.05.

Compared with FCASTRLPPTPLLLFPEEEAANGR [T21A], FCASTRLPPTPLLLFPEEEAWNGR [T21W] is lower in protein stability index: 2.6 for the first, 2.15 for the second.

Going from FCASTRLPPTPLLLFPEEEAKNGR [T21K] to FCASTRLPRTPLLLFPEEEATNGR [P9R], the protein stability index falls from 3.09 to 2.3.

Going from FCASTRLPCTPLLLFPEEEATNGR [P9C] to FCASTRLPNTPLLLFPEEEATNGR [P9N], the protein stability index rises from 2 to 2.84.

First: FCASTRLPATPLLLFPEEEATNGR [P9A]
Second: FCASTRKPPTPLLLFPEEEATNGR [L7K]
The protein stability index of the first is lower: 2.59 for the first, 2.89 for the second.

First: FCASTRLPPTPLLLDPEEEATNGR [F15D]
Second: FCASTRLPPTPLLLHPEEEATNGR [F15H]
The protein stability index of the first is higher: 3.62 for the first, 3.34 for the second.

Going from FCASTRLPPTPLLLAPEEEATNGR [F15A] to FCASTRLPPTPLLLQPEEEATNGR [F15Q], the protein stability index rises from 2.93 to 3.35.

Going from FCASTRLPPTPLLLRPEEEATNGR [F15R] to FCASTRLPPTDLLLFPEEEATNGR [P11D], the protein stability index falls from 3.37 to 2.99.

First: FCASTRLPPTVLLLFPEEEATNGR [P11V]
Second: FCASTRLPPTSLLLFPEEEATNGR [P11S]
The protein stability index of the first is lower: 2.8 for the first, 3.05 for the second.

Going from FCASTRLPPTTLLLFPEEEATNGR [P11T] to FCASTRLPPTFLLLFPEEEATNGR [P11F], the protein stability index falls from 2.74 to 2.08.

First: FCASTRLPPTPLLRFPEEEATNGR [L14R]
Second: FCASTRLPPTPLLFFPEEEATNGR [L14F]
The protein stability index of the first is higher: 3.56 for the first, 2.14 for the second.

First: FCASTRLPPTPLLNFPEEEATNGR [L14N]
Second: FCASTRLPPTPLLHFPEEEATNGR [L14H]
The protein stability index of the first is higher: 3.61 for the first, 3.49 for the second.
